Experimental data as given in patent US20100260765A1 (AstraZeneca / MedImmune, published 2010).

Legend:
Assay in all cases: cell-based or functional assay
KDR [1] = target: T1, KDR (human, UniProt P35968 20-1356)
KDR [2] = target: T1, KDR; remark: listed apart in the source
KDR [3] = target: T1, KDR; remark: listed apart in the source
KDR [4] = target: T1, KDR; remark: listed apart in the source
KDR [5] = target: T1, KDR; remark: listed apart in the source

T1 sequence (P35968 20-1356): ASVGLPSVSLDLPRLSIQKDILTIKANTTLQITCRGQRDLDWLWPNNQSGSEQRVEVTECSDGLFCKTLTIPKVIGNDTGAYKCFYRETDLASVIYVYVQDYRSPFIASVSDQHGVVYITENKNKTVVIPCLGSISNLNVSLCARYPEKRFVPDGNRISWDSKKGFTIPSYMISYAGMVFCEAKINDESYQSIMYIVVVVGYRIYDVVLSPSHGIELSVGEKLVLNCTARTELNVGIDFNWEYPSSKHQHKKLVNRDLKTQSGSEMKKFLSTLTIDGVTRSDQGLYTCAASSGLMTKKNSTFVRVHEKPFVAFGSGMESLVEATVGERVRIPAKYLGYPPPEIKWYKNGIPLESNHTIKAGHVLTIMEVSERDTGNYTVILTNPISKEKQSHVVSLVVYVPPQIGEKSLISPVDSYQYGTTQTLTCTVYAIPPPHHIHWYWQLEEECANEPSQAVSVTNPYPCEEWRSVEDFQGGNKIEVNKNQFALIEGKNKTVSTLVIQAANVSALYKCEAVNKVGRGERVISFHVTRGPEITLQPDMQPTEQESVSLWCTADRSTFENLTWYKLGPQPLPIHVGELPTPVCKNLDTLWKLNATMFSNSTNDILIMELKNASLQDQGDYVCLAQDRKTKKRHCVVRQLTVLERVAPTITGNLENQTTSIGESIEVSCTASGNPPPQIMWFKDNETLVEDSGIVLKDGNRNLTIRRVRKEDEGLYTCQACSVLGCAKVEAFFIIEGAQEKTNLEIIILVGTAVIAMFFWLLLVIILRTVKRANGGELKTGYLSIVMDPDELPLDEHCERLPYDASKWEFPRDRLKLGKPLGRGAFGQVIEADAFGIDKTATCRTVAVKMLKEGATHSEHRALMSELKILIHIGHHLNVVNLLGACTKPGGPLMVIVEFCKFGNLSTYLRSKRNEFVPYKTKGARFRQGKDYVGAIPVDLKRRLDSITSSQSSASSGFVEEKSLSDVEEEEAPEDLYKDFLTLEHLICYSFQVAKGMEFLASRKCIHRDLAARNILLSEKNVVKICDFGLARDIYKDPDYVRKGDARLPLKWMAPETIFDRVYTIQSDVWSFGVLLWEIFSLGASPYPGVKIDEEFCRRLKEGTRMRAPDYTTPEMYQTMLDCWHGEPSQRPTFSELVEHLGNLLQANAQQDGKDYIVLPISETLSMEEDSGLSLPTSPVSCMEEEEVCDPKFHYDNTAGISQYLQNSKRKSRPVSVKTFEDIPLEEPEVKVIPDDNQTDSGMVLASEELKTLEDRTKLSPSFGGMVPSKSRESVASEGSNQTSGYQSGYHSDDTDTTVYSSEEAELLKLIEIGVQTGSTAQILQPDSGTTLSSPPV

| Binder | Activity at 133 nM (% Inhibition), 1-hour Pre-incubation at 4° C., Average (KDR [1]) [%] | Activity at 133 nM (% Inhibition), 1-hour Pre-incubation at 4° C., N = 1 (KDR [1]) [%] | Activity at 133 nM (% Inhibition), 1-hour Pre-incubation at 4° C., N = 2 (KDR [1]) [%] | Activity at 133 nM (% Inhibition), 24-hour Pre-incubation at 37° C., Average (KDR [2]) [%] | Activity at 133 nM (% Inhibition), 24-hour Pre-incubation at 37° C., N = 1 (KDR [2]) [%] | Activity at 133 nM (% Inhibition), 24-hour Pre-incubation at 37° C., N = 2 (KDR [2]) [%] | % of Max VEGF KDR pTyr Activity (at 133 nM antibody concentration), Average (KDR [3]) [%] | % of Max VEGF KDR pTyr Activity (at 133 nM antibody concentration), N = 1 (KDR [3]) [%] | % of Max VEGF KDR pTyr Activity (at 133 nM antibody concentration), N = 2 (KDR [3]) [%] | Activity at 133 nM Antibody Concentration (% Survival Inhibition), Average (KDR [4]) [%] | Activity at 133 nM Antibody Concentration (% Survival Inhibition), N = 1 (KDR [4]) [%] | Activity at 133 nM Antibody Concentration (% Survival Inhibition), N = 2 (KDR [4]) [%] | % Inhibition of VEGF165-mediated 6-keto Prostaglandin F1α release at 133 nM Antibody Concentration, Average (KDR [5]) [%] | % Inhibition of VEGF165-mediated 6-keto Prostaglandin F1α release at 133 nM Antibody Concentration, N = 1 (KDR [5]) [%] | % Inhibition of VEGF165-mediated 6-keto Prostaglandin F1α release at 133 nM Antibody Concentration, N = 2 (KDR [5]) [%] |
| --- | --- | --- | --- | --- | --- | --- | --- | --- | --- | --- | --- | --- | --- | --- | --- |
| 29A3 (antibody, V domains shown) VH: QVQLQESGPGLVKPSETLSLTCTVSGGSISSYFWSWIRQPAGKGLEWIGRIYFSGRTNYNPSLKSRVTMSVETSKNQFSLKLNSVTAADTAVYYCARDGGWNYDVAFDYWGQGTLVTVSS VL: QAVLTQPSSLSASPGASASLTCTLRSGINVGTYRIYWYQQKPGSPPQYLLRYKSDSDQLQGSGVPSRFSGSKDASANAGILLISGLQSEDEADYYCMVWHSNTWVFGGGTKLTVL | 23 | 25 | 20 | 11 | 7 | 15 | 16 | 15 | 17 | -111 | -65 | -156 | 13 | 11 | 16 |
| 31E11 (antibody, V domains shown) VH: QVQLVESGGGLVKPGGSLRLSCAASGFTFSDYYMSWIRQAPGKGLEWVSYISISGSTIYYADSVKGRFTISRDNAKNSLYLQMNSLRAEDTAVYYCARDDFWSGYYFNWFDPWGQGTLVTVSS VL: DIQMTQSPSSLSASVGDRVTITCRANQTISTFLNWYQQNPGKAPKLLIYAASSLQSGVPSRFSGSGSGTDFTLTISSLQPEDFATYYCQQTYIIPLTFGGGTKVEIK | 81 | 82 | 80 | 69 | 90 | 48 | 5 | 4 | 6 | 89 | 83 | 95 | 114 | 130 | 98 |
| 29H3 (antibody, V domains shown) VH: QVQLVQSGAEVKKPGASVKVSCKASGYTFTSYDINWVRQATGQGLEWMGWMNPNSGKTGYAQKFQGRVTMTRNTSINTAYMELSSLRSEDTAVYYCARGGYSNLGWFDPWGQGTLVTVSS VL: DIQMTQSPSSVSASVGDRVTITCRASQGISSWLVWYHQKPGKAPKLLIYGASSLQSGVPSRFSGSGSGTDFTLTISSLQPEDFATYYCQQANNFPFTFGPGTKVDIK | 50 | 45 | 55 | 19 | 1 | 36 | 16 | 20 | 11 | -70 | -5 | -136 | 18 | 14 | 22 |
| 30F6 (antibody, V domains shown) VH: QVQLVESGGGVVQPGRSLRLSCAASGFTFSTYGMHWVRQAPGKGLEWVAVIWYDGSNKYYADSVKGRFTISRDNSKNTLYLQMNSLRAEDTAVYYCACSYWNDDYYYGMDVWGQGTTVTVSS VL: DIQMTQSPSSLSASVGDRVIITCRASQNISSYLIWYQQKPGKAPNLLIHTTSSLQRGVPSRFSGSGSGTDFTLTISSLQPEDFATYYCQQSYSAPLTFGGGTKVEIK | 84 | 84 | 85 | 55 | 60 | 51 | 13 | 14 | 13 | 82 | 91 | 74 | 79 | 68 | 89 |
